Source: US20090192289A1 (Genentech, published 2009)
Where no end group is shown, it is not given here. The star is where a group is joined. Biotin = O=C1N[C@H]2[C@H](CS[C@H]2CCCCC(=O)*)N1

B1: libN phage-displayed peptide SEQ ID NO:50 (peptide)
chain: ATEFWWGVG
modifications: not fully specified (C-terminus)
notes: 10 siblings; not shown: M13 gene-8 major coat protein (P8)
B2: libN phage-displayed peptide SEQ ID NO:53 (peptide)
chain: GDIVCTWGG
modifications: not fully specified (C-terminus)
notes: not shown: M13 gene-8 major coat protein (P8)
B3: libN phage-displayed peptide SEQ ID NO:51 (peptide)
chain: WGYWWGPGG
modifications: not fully specified (C-terminus)
notes: as for B2
B4: libN phage-displayed peptide GGFWWGPAG (peptide)
chain: GGFWWGPAG
modifications: not fully specified (C-terminus)
notes: 5 siblings; not shown: M13 gene-8 major coat protein (P8)
B5: hOmi_c2 (peptide)
peptide: Ac-RFPHFWV-OH
notes: synthetic peptide from libC; also called RFPHFWV
B6: libN phage-displayed peptide SEQ ID NO:55 (peptide)
chain: GIVWFWWDG
modifications: not fully specified (C-terminus)
notes: as for B2
B7: libN phage-displayed peptide GIAGFWWDG (peptide)
chain: GIAGFWWDG
modifications: not fully specified (C-terminus)
notes: 9 siblings; not shown: M13 gene-8 major coat protein (P8)
B8: libN phage-displayed peptide SEQ ID NO:56 (peptide)
chain: WIAGFWWDG
modifications: not fully specified (C-terminus)
notes: as for B2
B9: biotin-SWTMFWV (peptide)
peptide: Biotin-SWTMFWV
notes: Immobilized on NeutrAvidin-coated plates for shotgun library sorting
B10: PDZ-Opt (peptide)
peptide: Ac-GQYYFV-OH
notes: synthetic peptide, optimized ligand reported previously from a chemically synthesized library; also called GQYYFV
B11: hOmi_c1 (peptide)
peptide: Ac-SWTMFWV-OH
notes: synthetic peptide from libC; also called SWTMFWV
B12: libN phage-displayed peptide AGDSWWWGG (peptide)
chain: AGDSWWWGG
modifications: not fully specified (C-terminus)
notes: 4 siblings; not shown: M13 gene-8 major coat protein (P8)
B13: libN phage-displayed peptide ESLWWGWEG (peptide)
chain: ESLWWGWEG
modifications: not fully specified (C-terminus)
notes: 7 siblings; not shown: M13 gene-8 major coat protein (P8)
B14: libN phage-displayed peptide SEQ ID NO:52 (peptide)
chain: STDYWWGCG
modifications: not fully specified (C-terminus)
notes: as for B2
B15: libN phage-displayed peptide SEQ ID NO:54 (peptide)
chain: SSDYWWGCG
modifications: not fully specified (C-terminus)
notes: as for B2

Columns and labels:
[1] = biological target: T1, GST-Omi PDZ fusion protein (human, UniProt O43464 359-458); experiment: competition ELISA, 20 nM GST-Omi PDZ, immobilized biotin-GWTMFWV as competitor
T1 construct: also called GST-hOmiPDZ; hOmi PDZ domain; not shown: glutathione S-transferase (GST) encoded by plasmid pGEX6P-3
T1 sequence: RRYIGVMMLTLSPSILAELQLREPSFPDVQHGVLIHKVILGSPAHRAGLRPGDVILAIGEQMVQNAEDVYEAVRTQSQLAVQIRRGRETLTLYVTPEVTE
Description: (§1) Affinity Assays—The binding affinities of peptides for Omi PDZ were determined as IC₅₀ values using a previously described competition ELISA(18). The IC₅₀ value was defined as the concentration of peptide that blocked 50% of PDZ domain binding to immobilized peptide. Assay plates were prepared by immobilizing an amino-terminally biotinylated peptide (biotin-GWTMFWV) on maxisorp plates coated with NeuTravidin and blocked with BSA. A fixed concentration of GST-Omi PDZ fusion protein (20 nM) in PBS, 0.5% BSA, 0.1% Tween 20 (PBT buffer) was preincubated for 1 h with serial dilutions of peptide and then transferred to the assay plates. After 1 h incubation, the plates were washed with PBS, 0.05% Tween 20, incubated for 30 min with HRP/anti-GST antibody (1:10,000) in PBT buffer, washed again, and detected with 3,3′,5,5′-Tetramethyl-benzidine/H₂O₂ (TMB) peroxidase substrate.

[2] = biological target: T1, GST-Omi PDZ fusion protein; experiment: phage ELISA on GST-Omi PDZ after three rounds of selection
Description: Selection for Omi PDZ peptides—Previously described procedures were used to isolate peptides that bound to a GST-Omi PDZ fusion, using libraries of random decapeptides fused to either the C terminus(18) or octapeptide fused to the N terminus(19) of the M13 gene-8 major coat protein, designated as libC or libN, respectively. After three rounds of selection, individual clones were grown in a 96-well format in 500 μL of 2YT broth supplemented with carbenicillin, kanamycin and KO7, and the culture supernatants were used directly in phage ELISAs(19) to detect peptides that bound specifically to Omi PDZ. Peptide sequences derived from positive clones were aligned and tabulated. A total of 95 positive colonies from libC and 89 from libN were analyzed. (see Table II). […] The sequences were selected after three rounds of sorting with IPTG induction. Hydrophobic residues (A, F, I, L, M, V, W, Y) are italicized and bolded, n is the number of siblings.

[3] = biological target: T1, GST-Omi PDZ fusion protein; experiment: competition ELISA
Description: as §1

[4] = biological target: T1, GST-Omi PDZ fusion protein; experiment: competition ELISA, immobilized biotin-GWTMFWV
Description: as §1

[5] = biological target: T2, phage-displayed Omi PDZ (phagemid p8hOmi) (human; M13 bacteriophage); experiment: phage selection and phage ELISA on NeutrAvidin-immobilized peptide
T2 construct: Multivalent display on phage; not shown: M13 gene-8 coat protein
T2 chain: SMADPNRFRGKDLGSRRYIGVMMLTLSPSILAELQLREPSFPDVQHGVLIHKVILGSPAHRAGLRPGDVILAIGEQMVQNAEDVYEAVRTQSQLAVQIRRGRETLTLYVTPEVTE
Description: Library Sorting and Analysis—Phage from the libraries described above were propagated in E. coli XL1-blue with the addition of KO7 helper phage. After overnight growth at 37° C. (for peptide library) or 30° C. (for shotgun library), phage were concentrated by precipitation with PEG/NaCl and resuspended in PBS, 0.5% BSA, 0.1% Tween 20, as described previously(19). Phage solutions (10¹² phage/mL) were added to 96-well maxisorp immunoplates that had been coated with capture target and blocked with BSA. For shotgun library sorting, two different targets were used; for the display selection the target was an immobilized antibody that recognized the epitope tag fused to the N terminus of Omi PDZ, while for the function selection a biotinylated peptide that binds to Omi PDZ with high affinity (biotin-SWTMFWV) was immobilized on NeutrAvidin-coated plates. Following a 2 h incubation to allow for phage binding, the plates were washed 10 times with PBS, 0.05% Tween 20. Bound phage were eluted with 0.1 M HCl for 10 min and the eluent was neutralized with 1.0 M Tris base. Eluted phage were amplified in E. Coli XL1-blue and used for further rounds of selection.
Shotgun alanine-scanning of Omi PDZ domain—By superimposing the structure of Omi PDZ with the structure of Erbin PDZ-ligand complex(20), we identified a region that is directly involved or adjacent to the peptide binding site. […]

| Binder | IC50 [1] | binding result [2] | also measured |
| --- | --- | --- | --- |
| H-ATEFWWGVG-NH2 (synthetic peptide from libN) [hOmi_n4] | 32.4 µM |  |  |
| B1 |  | binds |  |
| H-SHWW-NH2 (also called SHWW; tetrapeptide (SHWW)) [hOmi_n1_t5] | 72.2 µM |  | fold lower affinity vs … (hOmi_n1) [3]: 3 fold |
| H-WWGGWLG-NH2 (also called WWGGWLG) [hOmi_n1_t7] |  |  | binding result [4]: no binding |
| Ac-WTMFWV-OH (also called WTMFWV) [hOmi_c1_t1] |  |  | binding result [3]: binds |
| B2 |  | binds |  |
| B3 |  | binds |  |
| H-WGGWLG-NH2 (also called WGGWLG) [hOmi_n1_t8] |  |  | binding result [4]: no binding |
| H-SHWWGGWL-NH2 [hOmi_n1_t1] | 17.6 µM |  |  |
| B4 |  | binds |  |
| Ac-TMFWV-OH (also called TMFWV) [hOmi_c1_t2] |  |  | fold lower affinity vs SWTMFWV (hOmi_c1) [3]: 15 fold |
| H-SHWWGGW-NH2 (also called SHWWGGW) [hOmi_n1_t2] | 26 µM |  |  |
| B5 | 162 µM |  | fold lower affinity vs SWTMFWV (hOmi_c1) [3]: 50 fold |
| B6 |  | binds |  |
| H-SHWWG-NH2 (also called SHWWG) [hOmi_n1_t4] |  |  | binding result [4]: no binding |
| B7 |  | binds |  |
| B8 |  | binds |  |
| B9 |  |  | binding result [5]: binds |
| B10 | 17.6 µM |  | fold lower affinity vs the optimized peptide derived from libC (hOmi_c1) [3]: 5 fold |
| H-SHWWGGWLG-NH2 (synthetic peptide from libN) [hOmi_n1] | 21.6 µM |  |  |
| B11 | 3.3 µM |  |  |
| Ac-AWTMFWV-OH (also called AWTMFWV) [hOmi_c1_A7] |  |  | binding result [3]: binds |
| Ac-SWTMFWA-OH (also called SWTMFWA) [hOmi_c1_A1] | 10.6 µM |  | fold increase of IC50 vs SWTMFWV (hOmi_c1) [3]: 3 fold |
| H-SHWWGG-NH2 (also called SHWWGG) [hOmi_n1_t3] |  |  | binding result [4]: no binding |
| H-HWWGGWLG-NH2 [hOmi_n1_t6] |  |  | fold reduction of binding affinity vs … (hOmi_n1) [3]: 3 fold |
| B12 |  | binds |  |
| B13 |  | binds |  |
| Ac-MFWV-OH (also called MFWV) [hOmi_c1_t3] | 24.1 µM |  |  |
| B14 |  | binds |  |
| B15 |  | binds |  |
